# Laboratory results taken from paper PMC2855817 (Biochemistry, 2010).
# Like-named read-outs stand apart in the source and are kept apart here.
# Columns and labels:
# [1] = system: O=C1CCCCCO1; test: purified protein; format: biochemical, Pseudomonas fluorescens; details: pH 7.2, BES, 23 °C
# [2] = biological target: L29P variant of Pseudomonas fluorescens (SIK WI) aryl esterase (PFE) (Pseudomonas fluorescens SIK WI); test: crystal structure
# [3] = biological target: T1, PFE (Pseudomonas fluorescens esterase; aryl esterase) (Pseudomonas fluorescens, UniProt P22862, L30P); details: pH 5.5, 23 °C; estimated upper limit
# T1 sequence (P22862 2-272 L30P): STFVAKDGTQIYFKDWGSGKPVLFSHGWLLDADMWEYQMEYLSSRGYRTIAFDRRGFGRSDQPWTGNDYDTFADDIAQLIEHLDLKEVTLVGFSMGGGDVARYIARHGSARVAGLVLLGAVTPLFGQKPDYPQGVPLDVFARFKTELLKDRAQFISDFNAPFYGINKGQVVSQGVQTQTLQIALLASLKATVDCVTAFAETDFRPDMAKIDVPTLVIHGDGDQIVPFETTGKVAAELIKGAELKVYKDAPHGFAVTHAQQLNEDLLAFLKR
# [4] = biological target: T1, PFE (Pseudomonas fluorescens esterase; aryl esterase); details: pH 5.5, 23 °C
compound,measurement,setting,value
PFE (Pseudomonas fluorescens esterase; aryl esterase) (Pseudomonas fluorescens; L30P),Km,[1],39000 ± 1000 µM
same,kcat,[1],11 ± 1 s⁻¹
same,kcat/Km,[1],280 M⁻¹ s⁻¹
L29P variant of Pseudomonas fluorescens (SIK WI) aryl esterase (PFE) (enzyme),stoichiometry N,[2],6
CC(=O)OO [peracetic acid],Km,[3],< 3 µM
same,Km,[4],41 ± 5 µM
